Laboratory results as given in PMC6052347, “Structure and Function of the Campylobacter jejuni Chromosome Replication Origin”.

Target: T1, 6HisCj1509 (Campylobacter jejuni 81116 (NCTC11828)?, UniProt Q0P820 1-295)
T1 sequence: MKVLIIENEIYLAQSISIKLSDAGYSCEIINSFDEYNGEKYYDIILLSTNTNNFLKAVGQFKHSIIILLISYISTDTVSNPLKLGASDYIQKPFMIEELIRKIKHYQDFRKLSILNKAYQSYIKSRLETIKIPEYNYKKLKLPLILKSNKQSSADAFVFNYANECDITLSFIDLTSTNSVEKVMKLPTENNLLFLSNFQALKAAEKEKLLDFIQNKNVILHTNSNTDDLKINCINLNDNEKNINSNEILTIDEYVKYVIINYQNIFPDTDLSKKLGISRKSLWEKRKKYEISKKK
Assay: EMSA; higher affinity than boxes 1 and 3; EMSA: room temperature, 15 min, up to 30 nM DnaA or 400 nM Cj1509, 4% PAGE in 1x TBE; box probes 0.4 uM; binding buffer not given (as in Jaworski 2016); DnaA with 5 mM ATP (footprinting) or 3 mM ATP (EM)
Settings: protein: recombinant; tags: N-terminal 6xHis (pET28a); chain copies: 2; label: FAM 5' on E7; blunt; three strands, nick between E7 and E10, E11 complementary to E7+E10

B1: Cj1509 box 2 probe (E7-E10-E11) (dsDNA)
DNA 1: GTGCCCTGGTCTGG
DNA 2: TTTGAAGAATGTTACAATTTCAACA
DNA 3: TGTTGAAATTGTAACATTCTTCAAACCAGACCAGGGCAC
- binding result: binds
